Assay results taken from patent US20190062420A1 (Janssen / Centocor, published 2019).

How the values were obtained:
[1] = target: T1, human FcγRIIA (NM_021642) expressed on cells (human, UniProt P12318 36-317); test: cell-based or functional assay
T1 sequence: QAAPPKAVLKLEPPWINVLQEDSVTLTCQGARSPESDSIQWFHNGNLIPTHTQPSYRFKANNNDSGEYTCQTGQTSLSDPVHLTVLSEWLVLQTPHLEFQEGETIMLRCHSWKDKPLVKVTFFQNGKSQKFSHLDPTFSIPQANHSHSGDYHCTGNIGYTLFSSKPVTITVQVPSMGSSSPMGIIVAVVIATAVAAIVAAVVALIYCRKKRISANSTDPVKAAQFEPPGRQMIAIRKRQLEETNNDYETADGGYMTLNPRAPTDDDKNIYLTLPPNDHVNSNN

[2] = target: T2, human FcγRIIB (NM_004001) expressed on cells (human, UniProt P31994 43-310); test: cell-based or functional assay
T2 sequence: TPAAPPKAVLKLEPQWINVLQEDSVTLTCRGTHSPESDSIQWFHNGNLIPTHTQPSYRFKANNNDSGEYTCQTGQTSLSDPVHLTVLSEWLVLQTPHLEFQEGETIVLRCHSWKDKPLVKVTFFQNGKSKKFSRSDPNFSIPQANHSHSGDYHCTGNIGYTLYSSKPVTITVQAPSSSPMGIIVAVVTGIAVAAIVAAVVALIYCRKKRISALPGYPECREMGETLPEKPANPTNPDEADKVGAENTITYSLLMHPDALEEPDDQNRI

[3] = target: T1, human FcγRIIA (NM_021642) expressed on …; test: cell-based or functional assay; remark: listed apart in the source
[4] = target: human FcγRIIIA (NM_000569) expressed on cells (human, UniProt P08637 17-254); test: cell-based or functional assay
Chain of human FcγRIIIA (NM_000569) expressed on cells (P08637 17-254 limits assumed): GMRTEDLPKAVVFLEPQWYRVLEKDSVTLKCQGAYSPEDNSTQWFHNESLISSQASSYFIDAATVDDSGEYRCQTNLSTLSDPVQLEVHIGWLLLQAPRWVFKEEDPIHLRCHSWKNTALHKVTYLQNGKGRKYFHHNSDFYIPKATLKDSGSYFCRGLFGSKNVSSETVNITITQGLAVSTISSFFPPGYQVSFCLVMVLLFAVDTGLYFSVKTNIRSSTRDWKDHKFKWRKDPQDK

[5] = target: T3, FcγRIIA protein (human, UniProt P12318 36-217, biotinylated (SureLINK Biotin Kit) in the ELISA of Example 1); test: cell-based or functional assay
T3 sequence: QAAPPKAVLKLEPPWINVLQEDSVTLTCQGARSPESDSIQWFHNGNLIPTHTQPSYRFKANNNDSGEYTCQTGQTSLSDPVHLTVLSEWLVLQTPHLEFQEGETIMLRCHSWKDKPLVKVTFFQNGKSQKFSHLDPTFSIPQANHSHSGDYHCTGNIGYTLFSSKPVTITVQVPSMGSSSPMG

[6] = target: T4, FcγRIIB protein (human, UniProt P31994 43-217, biotinylated (SureLINK Biotin Kit) in the ELISA of Example 1); test: cell-based or functional assay
T4 sequence: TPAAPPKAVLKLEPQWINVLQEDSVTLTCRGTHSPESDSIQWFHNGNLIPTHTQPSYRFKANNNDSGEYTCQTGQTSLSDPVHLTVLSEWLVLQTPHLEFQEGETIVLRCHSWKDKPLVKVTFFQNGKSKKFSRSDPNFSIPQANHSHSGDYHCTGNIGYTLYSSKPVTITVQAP

[7] = target: T5, human OX40 expressed on HEK-Blue: OX40 cells (human, UniProt P43489 29-277); test: flow cytometry; HEK-Blue: OX40 cells
T5 construct: also called CD134
T5 sequence: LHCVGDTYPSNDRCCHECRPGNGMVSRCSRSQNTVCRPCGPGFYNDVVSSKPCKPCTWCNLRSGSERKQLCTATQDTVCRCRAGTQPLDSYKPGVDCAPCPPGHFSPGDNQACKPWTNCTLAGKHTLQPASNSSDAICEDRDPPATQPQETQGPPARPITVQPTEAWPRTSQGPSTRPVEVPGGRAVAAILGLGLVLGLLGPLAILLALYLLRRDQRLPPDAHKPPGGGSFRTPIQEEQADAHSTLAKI
Outline: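 HEK-Blue Null 1 cells stably transfected with human OX40 were blocked, then incubated with mAbtyrin for 1.5 h at 4 °C. Binding was detected with a PE anti-human IgG F(ab′)₂ secondary, gating on DRAQ7-excluding live cells and taking geometric mean fluorescence. EC50 came from nonlinear regression versus log antibody concentration.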

[8] = target: T6, human FcγRI (NM_000566) expressed on cells (human, UniProt P12314 16-374); test: flow cytometry; Expi293F cells transfected with FcγRI
T6 construct: Transiently expressed on Expi293F cells
T6 sequence (P12314 16-374 limits assumed): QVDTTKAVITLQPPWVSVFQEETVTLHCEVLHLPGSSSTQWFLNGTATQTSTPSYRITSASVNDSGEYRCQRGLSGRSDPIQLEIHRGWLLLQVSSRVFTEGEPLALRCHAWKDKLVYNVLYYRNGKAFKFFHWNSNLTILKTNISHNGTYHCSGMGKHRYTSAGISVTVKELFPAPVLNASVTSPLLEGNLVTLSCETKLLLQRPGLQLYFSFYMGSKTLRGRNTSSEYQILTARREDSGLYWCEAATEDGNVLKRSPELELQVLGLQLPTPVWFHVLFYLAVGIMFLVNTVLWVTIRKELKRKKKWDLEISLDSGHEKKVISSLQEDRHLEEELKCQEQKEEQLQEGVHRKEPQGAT
Protocol: Plasmids expressing cDNAs encoding human FcγRI (NM_000566) (SEQ ID NO: 44), FcγRIIA (NM_021642) (SEQ ID NO: 2), FcγRIIB (NM_004001) (SEQ ID NO: 3), and FcγRIIIA (NM_000569) (SEQ ID NO: 45) (Origene) were transiently transfected into Expi293F cells by ExpiFectamine293 transfection kit (Life Technologies). Flow cytometry assays were performed 48 h after transfection.
(§1) 2×10⁵ cells per well were seeded in 96-well plate and blocked in BSA Stain Buffer (BD Biosciences, San Jose, USA) for 30 min at 4° C. Cells were incubated with test mAbtyrin on ice for 1.5 h at 4° C. After being washed twice with BSA stain buffer, the cells were incubated with R-PE labeled anti-human or anti-mouse IgG secondary antibody (Jackson Immunoresearch Laboratories) for 45 min at 4° C. The cells were washed twice in stain buffer and then resuspended in 150 μL of Stain Buffer containing 1:200 diluted DRAQ7 live/dead stain (Cell Signaling Technology, Danvers, USA). PE and DRAQ7 signals of the stained cells were detected by Miltenyi MACSQuant flow cytometer (Miltenyi Biotec, Auburn, USA) using B2 and B4 channel respectively. Live cells were gated on DRAQ7 exclusion and the geometric mean fluorescence signals were determined for at least 10,000 live events collected. FlowJo software (Tree Star) was used for analysis. Data was plotted as the logarithm of antibody concentration versus mean fluorescence signals. Nonlinear regression analysis was performed by GraphPad Prism 6 (GraphPad Software, Inc.) and EC₅₀ values were calculated.

[9] = target: T2, human FcγRIIB (NM_004001) expressed on …; test: flow cytometry; Raji cells (express predominantly FcγRIIB)
Protocol: as §1
Raji cell is a cell line derived from B cells that express predominantly FcγRIIB. The binding of mAbtyrins on Raji cells were investigated by flow cytometry assay described for testing mAbtyrin binding to FcγR. Binding of the mAbtyrins were detected by flow cytometry using a PE-labeled Goat F(ab′) against Human IgG(γ).

B1: OX40SF2IgG2sigma_R2BS29_HC-C (bispecific antibody)
heavy: QVQLVQSGAEVKKPGSSVKVSCKASGYTFKDYTMHWVRQAPGQGLEWIGGIYPNNGGSTYNQNFKDRVTLTADKSTSTAYMELSSLRSEDTAVYYCARMGYHGPHLDFDVWGQGTTVTVSSASTKGPSVFPLAPCSRSTSESTAALGCLVKDYFPEPVTVSWNSGALTSGVHTFPAVLQSSGLYSLSSVVTVPSSNFGTQTYTCNVDHKPSNTKVDKTVERKCCVECPPCPAPPAAASSVFLFPPKPKDTLMISRTPEVTCVVVDVSAEDPEVQFNWYVDGVEVHNAKTKPREEQFNSTFRVVSVLTVLHQDWLNGKEYKCKVSNKGLPSSIEKTISKTKGQPREPQVYTLPPSREEMTKNQVSLTCLVKGFYPSDIAVEWESNGQPENNYKTTPPMLDSDGSFFLYSKLTVDKSRWQQGNVFSCSVMHEALHNHYTQKSLSLSPGKGGGGGSGGGGSGGGGSGGGGSLPAPKNLVVSRVTEDSARLSWTAPDAAFDSFPIYYWEYRVGGEAIVLTVPGSERSYDLTGLKPGTEYFVYINGVKGGEESRPLSAIFTT
light: DIQMTQSPSSLSASVGDRVTITCKASQDVGAAVAWYQQKPGKAPKLLIYWASTRHTGVPSRFSGSGSGTDFTLTISSLQPEDFATYYCQQYINYPLTFGGGTKVEIKRTVAAPSVFIFPPSDEQLKSGTASVVCLLNNFYPREAKVQWKVDNALQSGNSQESVTEQDSKDSTYSLSSTLTLSKADYEKHKVYACEVTHQGLSSPVTKSFNRGEC
notes: mAbtyrin: anti-OX40 antibody OX40SF2, effector silent IgG2sigma, with linker and R2BS29 FN3 domain at the C-terminus of the heavy chain; also called mAbtyrin
% OX40 cell killed by macrophages (ADCP, 1 µg/ml) [1]: 88%
% activity at 1 µg/ml with Raji cells (HEK-Blue: OX40 NF-κB reporter) [2]: 93%
ADCP EC50 [3]: 0.0375 µg/mL
ADCC (fold activation) at 1 µg/ml [4]: 1 fold
IFNγ production by activated CD4 T cells, plate-coated FcγRIIA [5]: 1550 pg/mL
TNFα production by activated CD4 T cells, plate-coated FcγRIIA [5]: 226 pg/mL
IFNγ production by activated CD4 T cells, plate-coated FcγRIIb [6]: 1330 pg/mL
TNFα production by activated CD4 T cells, plate-coated FcγRIIb [6]: 250 pg/mL
Binding to HEK-Blue: OX40 cells (mean signal at 1 µg/ml) [7]: 9180 mean fluorescence signal
EC50 [7]: 0.548 µg/mL
EC50 [8]: > 10 µg/mL
EC50 [9]: 1.44 µg/mL

B2: OX40SF2IgG1 (antibody)
heavy: not shown
light: B1 light
notes: Anti-OX40 antibody, wild-type IgG1; control without FN3 domain
% activity at 1 µg/ml with Raji cells (HEK-Blue: OX40 NF-κB reporter) [2]: 9%
ADCP EC50 [3]: 0.0393 µg/mL
ADCC (fold activation) at 1 µg/ml [4]: 9 fold
IFNγ production by activated CD4 T cells, plate-coated FcγRIIA [5]: 92 pg/mL
TNFα production by activated CD4 T cells, plate-coated FcγRIIA [5]: 28 pg/mL
IFNγ production by activated CD4 T cells, plate-coated FcγRIIb [6]: 70 pg/mL
TNFα production by activated CD4 T cells, plate-coated FcγRIIb [6]: 30 pg/mL
EC50 [7]: 0.229 µg/mL
EC50 [8]: 0.494 µg/mL

B3: OX40SF2IgG2sigma (antibody)
heavy: QVQLVQSGAEVKKPGSSVKVSCKASGYTFKDYTMHWVRQAPGQGLEWIGGIYPNNGGSTYNQNFKDRVTLTADKSTSTAYMELSSLRSEDTAVYYCARMGYHGPHLDFDVWGQGTTVTVSSASTKGPSVFPLAPCSRSTSESTAALGCLVKDYFPEPVTVSWNSGALTSGVHTFPAVLQSSGLYSLSSVVTVPSSNFGTQTYTCNVDHKPSNTKVDKTVERKCCVECPPCPAPPAAASSVFLFPPKPKDTLMISRTPEVTCVVVDVSAEDPEVQFNWYVDGVEVHNAKTKPREEQFNSTFRVVSVLTVLHQDWLNGKEYKCKVSNKGLPSSIEKTISKTKGQPREPQVYTLPPSREEMTKNQVSLTCLVKGFYPSDIAVEWESNGQPENNYKTTPPMLDSDGSFFLYSKLTVDKSRWQQGNVFSCSVMHEALHNHYTQKSLSLSPGK
light: B1 light
notes: Anti-OX40 antibody, IgG2 sigma isotype (effector silent Fc: V234A, G237A, P238S, H268A, V309L, A330S, P331S against wild type IgG2); control without FN3 domain; also called parental antibody; parental OX40 antibody
% OX40 cell killed by macrophages (ADCP, 1 µg/ml) [1]: 12%
% activity at 1 µg/ml with Raji cells (HEK-Blue: OX40 NF-κB reporter) [2]: 2%
ADCP EC50 [3]: > 1 µg/mL
ADCC (fold activation) at 1 µg/ml [4]: 1 fold
IFNγ production by activated CD4 T cells, plate-coated FcγRIIA [5]: 97 pg/mL
TNFα production by activated CD4 T cells, plate-coated FcγRIIA [5]: 28 pg/mL
IFNγ production by activated CD4 T cells, plate-coated FcγRIIb [6]: 70 pg/mL
TNFα production by activated CD4 T cells, plate-coated FcγRIIb [6]: 30 pg/mL
Binding to HEK-Blue: OX40 cells (mean signal at 1 µg/ml) [7]: 13900 mean fluorescence signal
EC50 [7]: 0.166 µg/mL
EC50 [9]: > 10 µg/mL
